The values below come from publication PMC7153000, “Radiosynthesis, Biological Evaluation, and Preclinical Study of a ^68Ga-Labeled Cyclic RGD Peptide as an Early Diagnostic Agent for Overexpressed αvβ3 Integrin Receptors in Non-Small-Cell Lung Cancer” (Contrast Media & Molecular Imaging, 2020).

The fraction unbound is free concentration divided by total concentration. Low values mean extensive binding, high ones weak binding. For orientation: logD means the decadic logarithm of the distribution of all forms, ionised or not, between an organic phase and buffer at a given pH. Lower therefore signals lower lipophilicity. By Kd is commonly meant the concentration at which binding is half-saturated.

A short description of one series: in vitro. The series is classed as in vitro ADME. To be noted: human, plasma. How it is done: The protein binding properties of [^68Ga]Ga-DOTA-E(cRGDfK)2 in blood were investigated by protein precipitation. 1ml of the labeled complex and 3ml of human plasma were mixed and incubated for 1 hour at 37°C. Then, an equal volume of 10% trichloroacetic acid (TCA) was added, and samples were centrifuged at 3,000 rpm for 10 min […]. Precipitate was resuspended in 5% TCA and centrifuged at 3,000 rpm for 10 min. Precipitate and the supernatant fractions were analyzed for radioactivity in a gamma counter. Protein binding of [^68Ga]Ga-DOTA-E(cRGDfK)2 was expressed as the fraction of radioactivity bound to the protein, in percentage of the total radioactivity.

The next series deals with A549 tumor. Further details: species or system BALB/c mice. The settings on record: mouse, in vivo. On the procedure: 100 μg of [^68Ga]Ga-DOTA-E(cRGDfK)2 formulated in 100 μL saline was injected via the tail vein of 3 groups of 3 BALB/c mice. At 30, 60, and 90 min postinjection, mice were euthanized using a lethal dose of ketamine/xylazine, and blood was collected from the heart using a preheparinised syringe. Tumor and normal organs were excised, washed, weighed, and the radioactivity of each organ was determined using a well-type gamma counter. The organ uptake was measured as percent of the injected dose per gram of organ tissue (%ID/g). A blocking experiment was performed in the presence of a 500-fold excess of unlabeled DOTA-E(cRGDfK)2 30 min before [^68Ga]Ga-DOTA-E(cRGDfK)2 injection.
6–8 weeks female BALB/c mice (with body weights of 20–25 g) were purchased from Royan Insitute (Amol, Iran). Animals were housed in wire cages under controlled conditions of temperature at 25°C, relative humidity around 50%, and 12/12 h light/dark cycles with food, and water was given ad libitum. 2 × 10^6 cell suspensions of human lung adenocarcinoma A549 in 100 μl PBS were injected subcutaneously in the right dorsal flank of each mouse. Palpable tumor diameter was measured using digital calipers twice weekly. When tumor size reached a mean tumor volume of 50–100 mm^3, animals received a tail vein injection of 740 kBq of [^68Ga]Ga-DOTA-E(cRGDfK)2 in 100 μl normal saline. […]

A further series is described as follows: physchem. The series is classed as physicochemical. To be noted: pH 7.4. On the procedure: In a 5 ml Eppendorf tube, 100 μl of the radiolabelled peptide, 0.99 ml of PBS, pH 7.4, and 1 ml n-octanol were mixed. After intense vortexing for 8 min, the two layers were separated by centrifugation. Then, 500 μl aliquots of aqueous and organic layers were transferred to a new tube, radioactivity was measured in a well-type gamma counter (Delshid Gamma counter, Tehran, Iran), and partition coefficient (log P) values were calculated (n = 3).

The next series concerns the target integrin αvβ3. To be noted: cRGDfK as reference; cited from earlier work. From the text:
Based on previous studies, multimeric cyclic RGD has higher (20–100 more) αvβ3 binding affinity than its monomeric alternatives. […] Many other works reported higher dissociation constant or lower affinity.

Bounds are passed on as bounds.

For the compound `N=C(N)NCCC[C@@H]1NC(=O)[C@H](CCCCNC(=O)CC[C@H](NC(=O)CN2CCN(CC(=O)O)CCN(CC(=O)O)CCN(CC(=O)O)CC2)C(=O)NCCCC[C@@H]2NC(=O)[C@@H](Cc3ccccc3)NC(=O)[C@H](CC(=O)O)NC(=O)CNC(=O)[C@H](CCCNC(=N)N)NC2=O)NC(=O)[C@@H](Cc2ccccc2)NC(=O)[C@H](CC(=O)O)NC(=O)CNC1=O` [[^68Ga]Ga-DOTA-E(cRGDfK)2, metal not drawn], in the series “in vitro” (1 h), the “In vitro protein binding” value was 2.88%. Besides, the unbound share (fraction unbound) at 1 h in the series “in vitro” (In vitro protein binding) was over 0.95. Moreover, in the series with A549 tumor, the Clearance entry is “fast and via the renal system”; the “Uptake of radioactivity in the kidney and intestine” value is “moderate uptake”. Also, the log distribution coefficient (logD) in the series “physchem” is -3.97 ± 0.13.
Consider cRGDfK, for which the Kd at integrin αvβ3 was 1300 nM.
